Measurements: patent US20030235860A1, “Interactions between AR, ER, TR2, and TR4” (priority 1999, published 2003)
Each block holds one molecule with its values, some of them ahead of it.

Key:
GST-TR4 = target: T1, GST-TR4 (Homo sapiens, UniProt P49116); assay: GST-TR4 pull-down assay; type: binding; details: for Interaction with GST-TR4 fusion protein: [35S]-methionine labeled proteins, absence of E2, Example 3; for Interaction with GST-TR4 in pull-down assay: in vitro translated 35S methionine-labeled proteins, Example 1
T1 construct: which used the full length of TR4 containing AF-1; made in house
T1 sequence (P49116 1-615 isoform P49116-2 N175S/W419R/A428G/K503N/L504W/A613V): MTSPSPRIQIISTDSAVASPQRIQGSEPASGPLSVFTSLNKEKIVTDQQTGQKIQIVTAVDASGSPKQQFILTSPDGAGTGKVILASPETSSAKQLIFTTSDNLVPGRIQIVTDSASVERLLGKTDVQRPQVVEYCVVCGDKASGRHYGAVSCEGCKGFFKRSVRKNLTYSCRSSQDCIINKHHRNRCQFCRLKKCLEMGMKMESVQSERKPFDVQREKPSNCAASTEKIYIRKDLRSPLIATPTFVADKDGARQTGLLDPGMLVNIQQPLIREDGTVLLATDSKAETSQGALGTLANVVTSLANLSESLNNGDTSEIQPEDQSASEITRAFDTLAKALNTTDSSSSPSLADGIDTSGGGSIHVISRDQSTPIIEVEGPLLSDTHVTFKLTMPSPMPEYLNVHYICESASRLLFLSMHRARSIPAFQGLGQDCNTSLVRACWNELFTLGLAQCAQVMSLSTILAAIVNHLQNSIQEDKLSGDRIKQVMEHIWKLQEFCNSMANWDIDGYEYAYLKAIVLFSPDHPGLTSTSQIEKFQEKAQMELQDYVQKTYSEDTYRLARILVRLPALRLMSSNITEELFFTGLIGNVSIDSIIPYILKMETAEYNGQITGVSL
Method: GST-TR4 fusion protein and GST control protein were purified as instructed by the manufacturer (Pharmacia). […] of in vitro translated 35S methionine-labeled proteins were used to perform a pull-down assay as described previously. Cacailles, et al., EMBO 14, 3741-3751 (1995).
Using a GAL4-TR4 fusion protein as bait, the yeast two-hybrid system was used to isolate several potential TR4 associated proteins. […] A GST-TR4 fusion protein pull-down assay was performed to further confirm the result. GST-TR4 fusion protein and GST control protein were purified as instructed by the manufacturer (Pharmacia).
A GST pull-down assay was performed according to the methods described previously (Lee, Y. et al. (1999) Proc. Natl. Acad Sci. USA. 96(26) 14724-9).
Briefly, the GST fusion protein and GST control protein were expressed in an Escherichia coli strain BL21 (DE3) pLys bacterial culture and recovered on glutathione-Sepharose-4B beads. Equal amounts of GST fusion protein bound to glutathione-Sepharose-4B beads were incubated for 2 h at 4° C. with 5 μl of in vitro translated [^35S]methionine-labeled protein in a total volume of 100 µl of incubation buffer (20 mM HEPES/pH 7.9, 150 mM KCl, 5 mM MgCl2, 0.5 mM EDTA, 0.5 mM dithiothreitol, 0.1% Nonidet P-40, 1 mg/ml bovine serum albumin, and 10% glycerol), and protease inhibitor mixture (1 mM phenylmethylsulfonyl fluoride, 1 μg/ml aprotinin, leupeptin, and pepstatin). The beads were then washed three times with wash buffer (20 mM Tris/pH 8.0, 100 mM NaCl, 1 mM EDTA, and 0.5% Nonidet P-40), boiled in 2×SDS sample buffer, loaded onto SDS-polyacrylamide gels, and visualized by autoradiography.

PSA = assay: Northern blot of endogenous PSA in LNCaP cells; type: cell-based, human
Method: Total RNA from the DHT-treated transfected LNCaP cells was prepared by the ultracentrifugation method as described. Lee, et al., J: Biol. Chem. 273, 13437-13443 (1998). The probe was obtained from exon 3 of PSA gene and labeled with a-32p dCTP.
To rule out the potential artificial effects linked to transfected reporter assays, the expression of endogenous prostate specific antigen (PSA, an androgen target that is widely used as a marker for prostate cancer progression) in LNCaP cells was measured by Northern blot analysis. Total RNA (25 μg) from LNCaP cells, which were transfected with either pCMX-TR4 or pCMX vector using SuperFect (Qiagen), was applied into a formamide RNA gel, then transferred onto a Nylon membrane, and then hybridized with a 32P-PSA gene fragment from the exon 3. P-actin was used as an internal control. […] The level of secreted PSA protein in the medium measured by ELISA, also confirmed this conclusion. This in vivo TR4-mediated suppressive effect strongly supports the above reporter assays.
Total RNA from transfected LNCaP cells was prepared using TRIZOL reagents (Life Technology) as instructed by manufacturer. The probe was obtained from the PSA gene by PCR and labeled with 32P dCTP. Northern hybridization was performed as described previously [Mu X. M. et al. (2002) J Biol Chem 275:23877-23883].

Interaction with GST-TR4 fusion protein (GST-TR4): unable to interact | Interaction with GST-TR4 in pull-down assay (GST-TR4): no interaction
Molecule: RXR: retinoid X receptor, another member of the steroid receptor superfamily

Molecule: AR: androgen receptor, SEQ ID NO:31
Interaction with GST-TR4 fusion protein (GST-TR4): binds well | Interaction with GST-TR4 in pull-down assay (GST-TR4): physically interact

B1: TR4: human testicular orphan nuclear receptor 4, SEQ ID NO:16; expressed from plasmid or in vitro translated (protein)
chain: T1 sequence (P49116 1-615 isoform P49116-2 N175S/W419R/A428G/K503N/L504W/A613V)
Expression of endogenous PSA transcript (PSA; LNCaP cells transfected with pCMX-TR4, absence or presence of 10 nM DHT): clearly repress

B2: TR2: human testicular orphan nuclear receptor 2, 603 amino acids (protein, UniProt P13056 1-603, looked up)
chain: MATIEEIAHQIIEQQMGEIVTEQQTGQKIQIVTALDHNTQGKQFILTNHDGSTPSKVILARQDSTPGKVFLTTPDAAGVNQLFFTTPDLSAQHLQLLTDNSPDQGPNKVFDLCVVCGDKASGRHYGAVTCEGCKGFFKRSIRKNLVYSCRGSKDCIINKHHRNRCQYCRLQRCIAFGMKQDSVQCERKPIEVSREKSSNCAASTEKIYIRKDLRSPLTATPTFVTDSESTRSTGLLDSGMFMNIHPSGVKTESAVLMTSDKAESCQGDLSTLANVVTSLANLGKTKDLSQNSNEMSMIESLSNDDTSLCEFQEMQTNGDVSRAFDTLAKALNPGESTACQSSVAGMEGSVHLITGDSSINYTEKEGPLLSDSHVAFRLTMPSPMPEYLNVHYIGESASRLLFLSMHWALSIPSFQALGQENSISLVKAYWNELFTLGLAQCWQVMNVATILATFVNCLHNSLQQDKMSTERRKLLMEHIFKLQEFCNSMVKLCIDGYEYAYLKAIVLFSPDHPSLENMEQIEKFQEKAYVEFQDYITKTYPDDTYRLSRLLLRLPALRLMNATITEELFFKGLIGNIRIDSVIPHILKMEPADYNSQIIGHSI
modifications: full-length
notes: human testicular orphan nuclear receptor 2, 603 amino acids
Interaction with GST-TR4 in pull-down assay (GST-TR4): physically interact | PSA mRNA expression (PSA; LNCaP cells, 10 nM DHT, pCMV-TR2, Example 4): suppresses
